One molecule from paper PMC7139201 (Developmental cell, 2020) can be followed below.

For the assay, the target named is T1, Vps4^E233Q-3xHA (ATP hydrolysis deficient substrate trap mutant) (S. japonicus, UniProt B6K5C2 1-436, E233Q).
T1 sequence (looked up): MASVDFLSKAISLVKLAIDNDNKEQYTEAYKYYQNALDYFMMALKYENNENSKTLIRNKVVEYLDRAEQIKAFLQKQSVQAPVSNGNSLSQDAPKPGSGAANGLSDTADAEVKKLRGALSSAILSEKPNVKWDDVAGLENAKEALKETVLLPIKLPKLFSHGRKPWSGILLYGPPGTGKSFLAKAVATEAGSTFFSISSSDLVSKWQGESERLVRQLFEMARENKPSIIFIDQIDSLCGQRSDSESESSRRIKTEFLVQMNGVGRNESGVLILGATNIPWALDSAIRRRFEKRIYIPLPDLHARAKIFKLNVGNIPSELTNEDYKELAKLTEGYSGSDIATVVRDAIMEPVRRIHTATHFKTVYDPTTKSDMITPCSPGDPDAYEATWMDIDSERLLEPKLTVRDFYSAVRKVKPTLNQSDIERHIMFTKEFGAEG
In words: pull-down.

B1: GST-Did4 (natural protein, S. japonicus, UniProt B6K6Y8 1-208, looked up)
chain: MGMFDWIFGKQRSPAEVMRAHQRQLNRAERELDREQLKLDQREKGLIREIKANAKAGNVGAARVQARDLMRLRNSRKRMQNTKTQLQAIGLRLTTVRSSDQMMSSMRSATTLLTRMNRSANLPALTRITQQFERENDMMEQRQDMIDEQFEEGLEDEDEEEADELVDQVLDEIGVSLSQDLPSAAQANTTKADTISSGLNLEDLAHIR
For the molecule B1, the binding result is recorded as “binds”.
